This test concerns the target envelope (E) protein of DENV3 reference strain CH53489, on the virus particle (dengue virus serotype 3, strain CH53489).

B1: Fab fragment of human monoclonal antibody 5J7 (Fab, V domains shown)
VH: QVQLVQSGAELRKPGSSVKVSCRASGGTFSSYTFNWVRQAPGQGLEWMGGFIPVFNTTNYAQTFQGRVTIAADKSTSTAYMELRSLRSEDTAIYYCARDKELLFSRAFDIWGQGTMVTVSS
VL: DIQMTQSPSSLSASVGDRVTITCRASQSISRYLNWYQREPGKAPKLLIYGASSLQRGVPSRFSGSGSGTDFTLTISSLQPEDFATYYCQQSQYIPYTFGQGTKVDIK
With B1, the neut50, flow cytometry-based neutralization of DENV3 (CH53489) infection of Vero-81 cells turned out to be 0.041 µg/mL.

The values are drawn from paper PMC4346626.
